The subject of series [1] is angiogenesis in Caki-1-containing plugs. Kind of series: Matrigel Plug assay with Caki-1 cells, CD31 staining. The class given is in vivo, nude (NCr Nu/Nu) female mice. The settings on record: 10 mg/kg every 3 days; vs saline; p<0.05. How it is done: One of the anti-LPA mAbs (B7) was tested for its ability to mitigate angiogenesis in vivo using the Matrigel Plug assay. This assay utilizes Matrigel, a proprietary mixture of tumor remnants including basement membranes derived from murine tumors. When Matrigel, or its derivate growth factor-reduced (GFR) Matrigel, is injected sc into an animal, it solidifies and forms a ‘plug.’ If pro-angiogenic factors are mixed with the matrix prior to placement, the plug will be invaded by vascular endothelial cells which eventually form blood vessels. Matrigel can be prepared either alone or mixed with recombinant growth factors (bFGF, VEGF), or tumor cells and then injected sc in the flanks of 6-week old nude (NCr Nu/Nu) female mice. In this example, Caki-1 (renal carcinoma) cells were introduced inside the Matrigel and are producing sufficient levels of VEGF and/or IL8 and LPA. Matrigel plugs were prepared containing 5×10^5 Caki-1 cells from mice treated with saline or with 10 mg/kg of anti-LPA mAb-B7, every 3 days starting 1 day prior to Matrigel implantation. Plugs were stained for endothelial CD31, followed by quantitation of the micro-vasculature formed in the plugs. Quantitation data were means+/−SEM of at least 16 fields/section from 3 plugs.

For the next series, the system named is B16-F10 murine melanoma. Description: B16-F10 murine melanoma experimental lung metastasis. Also noted: species or system C57BL/6 mice. The settings on record: mouse, in vivo. On the procedure: Study: The highly metastatic murine melanoma (B16-F10) was used to examine the therapeutic effect of anti-LPA mAbs on metastasis in vivo. […] 4 week old female (C57BL/6) mice received an injection of B16-F10 murine melanoma tumor cells (100 uL of 5×10^4 cells/animal) via the tail vein. Mice (10 per group) were administered 25 mg/kg of the anti-LPA mAb (either B3 or B7) or saline every three days by i.p. injection. After 18 days, lungs were harvested and analyzed. The pulmonary organs are the preferred metastatic site of the melanoma cells, and were therefore closely evaluated for metastatic nodules. The lungs were inflated with 10% buffered formalin via the trachea, in order to inflate and fix simultaneously, so that even small foci could be detectable on histological examination. Lungs were separated into five lobes and tumors were categorized by dimension (large >5 mm; medium 1-4 mm; small <1 mm) and counted under a dissecting microscope. […] For animals treated with mAb B3, large tumors were reduced by 21%, medium tumors by 17% and small tumors by 22%. Statistical analysis by student's T-test gave a p<0.05 for number of small tumors in animals treated with mAb B3 vs saline.

The nature of series [2]: Competition ELISA specificity, competitor S1P. The class given is binding. The settings on record: maximum inhibition, n = 3. On the procedure:
(§1) The specificity of the anti-LPA mAbs was assessed for their binding to LPA related biolipids such as distearoyl-phosphatidic acid, lysophosphatidylcholine, S1P, ceramide and ceramide-1-phosphate.
For orientation: ELISA stands for enzyme-linked immunosorbent assay.

The nature of series [3]: Competition ELISA specificity, competitor LPC. The class given is binding. As to conditions: maximum inhibition, n = 3. How it is done: as §1
A short description of series [4]: Surface plasmon resonance, 18:0 LPA on GLC sensor chip. The class given is binding. On the procedure:
(§2) All binding data were collected on a ProteOn optical biosensor (BioRad, Hercules Calif.). 12:0 LPA-thiol and 18:0 LPA-thiol were coupled to a maleimide modified GLC sensor chip (Cat. No 176-5011). First, the GLC chip was activated with an equal mixture of sulfo-NHS/EDC for seven minutes followed by a 7 minute blocking step with ethyldiamine. Next sulfo-MBS (Pierce Co., cat #22312) was passed over the surfaces at a concentration of 0.5 mM in HBS running buffer (10 mM HEPES, 150 mM NaCl, 0.005% tween-20, pH 7.4). LPA-thiol was diluted into the HBS running buffer to a concentration of 10, 1 and 0.1 uM and injected for 7 minutes producing 3 different density LPA surfaces (˜100, ˜300 and ˜1400 RU). Next, binding data for the humanized antibodies was collected using a 3-fold dilution series starting with 25 nM as the highest concentration (original stocks were each diluted 1 to 100). Surfaces were regenerated with a 10 second pulse of 100 mM HCl. All data were collected at 25° C. Controls were processed using a reference surface as well as blank injections. […] In order to extract estimates of the binding constants, data from the varying antibody concentrations were globally fit using 1-site and 2-site models. This produced estimates of the affinity for the bivalent (site 1) and monovalent site (site 2).
(Surface plasmon resonance follows binding to a sensor surface in real time, without labels.)

Series [5] is described as follows: Surface plasmon resonance, 12:0 LPA on GLC sensor chip. In kind it is binding. How it is done:
as §2

Another series concerns SKOV3 tumor. Description: SKOV3 ovarian tumor progression in nude mice. In kind it is in vivo. As to conditions: with lowering of serum and ascites IL-8, IL-6, GM-CSF. On the procedure:
Human mAb LT3015 reduced ovarian tumor SKOV3 progression and circulating cytokines in biological fluids. Nude mice were engrafted with either 10 mg/kg LT3015, vehicle, or 2 mg/kg paclitaxel (Taxol). After 56 days, mice were sacrificed and the peritoneal cavities were analyzed for tumor burden and ascites fluid accumulation. Tumors were harvested and final tumor weights were determined along with ascites volumes. Data were analyzed by ANOVA and student's t-test analysis. […] Serum and ascites levels of IL-6, IL-8, GM-CSF and VEGF were measured using ELISA kits from R&D systems, Minneapolis Minn.

Series [6] can be described thus: Safety, 7 day intravenous injection. As to conditions: for triglycerides / liver weights: mean±SD; for triglycerides: in mg/dL (unit assumed); for liver weights: in g (unit assumed). In kind it is in vivo, C57BL/6N mice. An excerpt:
Objective. This study assessed the safety of Lpathomab following intravenous injection of the antibody. C57BL/6N mice received Lpathomab (LT3000) for 7 consecutive days followed by a 7 day recovery period for selected animals of each treatment (recovery groups). Blood samples were collected and processed for multiple study parameters including classical hematology, coagulation time and clinical chemistry. Selected organs were weighed and compared with vehicle only controls.
Study design. Once a day, single iv bolus injections of Lpathomab or vehicle control were given at the following doses: 0, 30, 60, 120, and 240 mg/kg. […] For each animal, necropsy consisted of an external examination, including identification of all clinically recorded lesions, as well as a detailed internal examination.

Series [7] is described as follows: Specificity of LT3000 against other lipids and proteins. In kind it is binding. The settings on record: over 100 lipids and proteins incl. over 20 bioactive lipids. From the text:
The murine antibody is a full-length IgG1k isotype antibody composed of two identical light chains and two identical heavy chains with a total molecular weight of 155.5 kDa.

Where [8] appears, read: 30-240 mg/kg iv daily x 7 vs control.

Experimental findings from patent publication US8604172B2, “Humanized antibody compositions and methods for binding lysophosphatidic acid” (Lpath, Inc., priority 2009, dated 2013) are described below.

B1: LT3000: Murine anti-LPA monoclonal antibody clone B7, IgG1k, renamed Lpathomab, also known as LT3000; hybridoma 504B7.1, ATCC PTA-8420 (antibody, V domains shown)
VH: QVQLQQSGAELVRPGTSVKVSCKASGYGFINYLIEWIKQRPGQGLEWIGLINPGSDYTNYNENFKGKATLTADKSSSTAYMHLSSLTSEDSAVYFCARRFGYYGSGNYFDYWGQGTTLTVSS
VL: DVVMTQTPLSLPVSLGDQASISCTSGQSLVHINGNTYLHWYLQKPGQSPKLLIYKVSNLFSGVPDRFSGSGSGTDFTLKISRVEAEDLGVYFCSQSTHFPFTFGTGTKLEIK
As to B1, the reduction in angiogenesis entry in series [1] is “greater than 50%”. Also, the “metastatic spread of B16-F10 cells to lungs” value with B16-F10 murine melanoma is recorded as “reduced”. Also, the “MI (%), S1P” value in series [2] is on record as 2.7%. For the same molecule, the “MI (%), LPC” value in [3] came out at 0%. The Kd in series [4] (first value (site 1, bivalent), read-out: KD (C18)) was determined as 11 pM; in series [4] (value in parentheses (site 2, monovalent), read-out: KD (C18), value in parentheses), 5 pM; in series [5] (first value (site 1, bivalent), read-out: KD (C12)) it was 27 pM; in [5] (value in parentheses (site 2, monovalent), read-out: KD (C12), value in parentheses) it was 7 pM. Further, in the series on SKOV3 tumor, the SKOV3 tumor progression result is “significantly reduced”. The “weights of brains, hearts, lungs, pituitary glands, ovaries, spleens, testes, thymus glands, thyroid or uterus” value in [6] (30-240 mg/kg iv daily x 7) is reported as “No changes were observed”. For the same molecule, the “glucose, cholesterol, ALT or other CBC parameters” value in series [6] (setting [8]) is on record as “no statistically significant reductions”. In [6] (setting [8]), the hematology parameters result is “no significant differences”. The triglycerides in [6] (female mice, 120 mg/kg iv daily x 7, vehicle 89±17) worked out at 36±8; in [6] (female mice, 240 mg/kg iv daily x 7, vehicle 89±17) it was 46±18; in [6] (male mice, 240 mg/kg iv daily x 7, vehicle 133±24), 50±8. The liver weights is listed as 0.89±0.26 in series [6] (female mice, 240 mg/kg, vehicle 1.2±0.27); 1.03±0.07 in [6] (male mice, 60 mg/kg, vehicle 1.28±0.06); 1.08±0.11 in series [6] (male mice, 120 mg/kg, vehicle 1.28±0.06); 1.11±0.11 in [6] (male mice, 240 mg/kg, vehicle 1.28±0.06). Besides, the “binding affinity for other bioactive lipids and proteins” value in series [7] was “no binding affinity”.
